In patent US20200377563A1 (Pieris, published 2020):
Changes are numbered by the printed parent chain. Values joined by “and” are separate entries in the source; they are usually repeats but may differ in a detail not shown here. Equal entries are not always repeated. Where two headings read alike, the source gives them in different places.

B1: fusion protein of SEQ ID NO: 7 (designed binder)
chain: QDSTSDLIPAPPLSKVPLQQNFQDNQFHGKWYVVGEAGNLLLREDKDPRKMTATIYELKEDKSYDVTRVEFGAKTYKYQIGTFVPGSQPGEFTLGGIESMPGMTSFLVRVVSTNYNQHAIVFFKYVYQNREYFEITLYGRTKELTSELKENFIRFSKSLGLPENHIVFPVPIDQAIDGSGGGGSLAEAKEAANAELDSYGVSDFYKRLIDKAKTVEGVEALKDAILAALPSAWSHPQFEK
B2: human IL-23 (ligand)
chain 1: RAVPGGSSPAWTQCQQLSQKLCTLAWSAHPLVGHMDLREEGDEETTNDVPHIQCGDGCDPQGLRDNSQFCLQRIHQGLIFYEKLLGSDIFTGEPSLLPDSPVGQLHASLLGLSQLLQPEGHHWETQQIPSLSPSQPWQRLLLRFKILRSLQAFVAVAARVFAHGAATLSP
chain 2: IWELKKDVYVVELDWYPDAPGEMVVLTCDTPEEDGITWTLDQSSEVLGSGKTLTIQVKEFGDAGQYTCHKGGEVLSHSLLLLHKKEDGIWSTDILKDQKEPKNKTFLRCEAKNYSGRFTCWWLTTISTDLTFSVKSSRGSSDPQGVTCGAATLSAERVRGDNKEYEYSVECQEDSACPAAEESLPIEVMVDAVHKLKYENYTSSFFIRDIIKPDPPKNLQLKPLKNSRQVEVSWEYPDTWSTPHSYFSLTFCVQVQGKSKREKKDRVFTDKTSATVICRKNASISVRAQDRYYSSSWSEWASVPCS
notes: Heterodimer of p19 and p40; Biotinylated in the ELISA formats; also called hIL-23; hIL23
B3: negative control SEQ ID NO: 43 (other)
chain: QDSTSDLIPAPPLSKVPLQQNFQDNQFQGKWYVVGLAGNAILREDKDPQKMYATIYELKEDKSYNVTSVLFRKKKCDYWIRTFVPGCQPGEFTLGNIKSYPGLTSYLVRVVSTNYNQHAMVFFKKVSQNREYFKITLYGRTKELTSELKENFIRFSKSLGLPENHIVFPVPIDQCIDG
B4: mouse IL-23 (ligand)
chain 1: VPRSSSPDWAQCQQLSRNLCMLAWNAHAPAGHMNLLREEEDEETKNNVPRIQCEDGCDPQGLKDNSQFCLQRIRQGLAFYKHLLDSDIFKGEPALLPDSPMEQLHTSLLGLSQLLQPEDHPRETQQMPSLSSSQQWQRPLLRSKILRSLQAFLAIAARVFAHGAATLTEPLVPTA
chain 2: MWELEKDVYVVEVDWTPDAPGETVNLTCDTPEEDDITWTSDQRHGVIGSGKTLTITVKEFLDAGQYTCHKGGETLSHSHLLLHKKENGIWSTEILKNFKNKTFLKCEAPNYSGRFTCSWLVQRNMDLKFNIKSSSSSPDSRAVTCGMASLSAEKVTLDQRDYEKYSVSCQEDVTCPTAEETLPIELALEARQQNKYENYSTSFFIRDIIKPDPPKNLQMKPLKNSQVEVSWEYPDSWSTPHSYFSLKFFVRIQRKKEKMKETEEGCNQKGAFLVEKTSTEVQCKGGNVCVQAQDRYYNSSCSKWACVPCRVRS
notes: also called mIL-23
B5: lipocalin mutein SEQ ID NO: 46 (designed binder)
chain: QDSTSDLIPAPPLSKVPLQQNFQDNQFHGKWYVVGEAGNLLLREDKDPRKMTATIYELREDKSYDVTRVEFGVKTYKYQIGTFVPGSQPGEFTLGGIKSMPGMTSFLVRVVSTDYNQHAMVFFKYVYQNREYFEITLYGRTKELTSELKENFIRFSKSLGLPENHIVFPVPIDQAIDG
B6: lipocalin mutein SEQ ID NO: 45 (designed binder)
chain: B5 chain with L41I, R59K, Y76R, Q79R, D114N
B7: cynomolgus monkey IL-17A (ligand)
chain: GIAIPRNSGCPNSEDKNFPRTVMVNLNIHNRNTSTNPKRSSDYYNRSTSPWNLHRNEDPERYPSVIWEAKCRHLGCVKADGNVDYHMNSVPIQQEILVLRREPRHCPNSFRLEKILVSVGCTCVTPIVHHVA
notes: also called cIL-17A
B8: benchmark 3 (antibody, human IgG1, kappa, V domains shown)
VH: QVQLVQSGAEVKKPGASVKVSCKVSGKTFWSYGINWVRQAPGKGLEWMGYIYIGTGYTEPNPKYKGRVTMTEDTSTDTAYMELSSLRSEDTAVYYCATIGGYYGNFDQWGQGTTVTVSS
VL: DVVMTQSPLSLPVTLGQPASISCRSSQSLLISGGKTYLNWFQQRPGQSPRRLIYLVSKLDQGVPDRFSGSGSGTDFTLKISRVEAEDVGVYYCWQGTYFPLTFGQGTKLEIKR
B9: benchmark antibody 2 (antibody, human IgG4, kappa, V domains shown)
VH: QVQLVQSGAEVKKPGSSVKVSCKASGYSFTDYHISWVRQAPGQGLEWMGVINPEYGTTDYNQRFKGRVTITADESTSTAYMELSSLRSEDTAVYYCARYDYFTGTGAYWGQGTLVTVSS
VL: DIVMTQTPLSLSVTPGQPASISCRSSQSLKHSRGNTFLHWYLQKPGQSPQLLIYKVSNRFIGVPDRFSGSGSGTDFTLKISRVEAEDVGVYYCSQSTHYPFTFGQGTKLEIKR
B10: marmoset IL-17A (ligand)
chain: GIASPQNPGCPNAEDKNFPRTVMVNLNIRNRNTNSKRASDYYNRSSSPWNLHRNEDPERYPSVIWEAKCRHLGCVDADGNVDYHMNSVPIQQEILVLRREPRHCTNSFRLEKMLVSVGCTCVTPIVRHVA
notes: also called marmoset monkey IL-17A

Legend:
[1] = target: B2; experiment: SPR (Biacore T200), biotinylated binder captured on CAP chip, hIL-23 as analyte, buffer with 350 mM NaCl
Description: To this end, undiluted Biotin CAPture Reagent was applied at a flow rate of 2 μL/min for 300 s. […] The reference channel was loaded with Biotin CAPture Reagent only.
Applying a flow rate of 30 μL/min, a single cycle kinetics approach was used with a sample contact time of 300 s and a dissociation time of 4000 s or 7200 s. After ligand immobilization, all 5 concentrations were applied consecutively in ascending order before the dissociation was monitored. All measurements were performed at 25° C.

[2] = target: B2; experiment: competition ELISA (MSD), biotinylated hIL-23 pre-incubated with binder, free hIL-23 captured on coated hIL-23R
Description: (§1) All incubation steps were performed with shaking 300 rpm, and the plate was washed after each incubation step with 80 μl PBS/0.05% Tween 20 for five times using a Biotek EL405 select CW washer. […] After washing, the receptor-coated wells were blocked with 60 μl PBS-T/BSA for 1 h at room temperature.
(§2) After washing, 60 μl MSD Read Buffer T (2×) was added to each well and the plate was read within 15 min.
(§3) The resulting ECL signal was measured using the SECTOR Imager 2400 (Meso Scale Discovery).

[3] = target: T1, lipocalin mutein of SEQ ID NO: 2; experiment: solution competition ELISA: 0.5 nM SEQ ID NO: 2 pre-incubated with varied ligand, free mutein captured on immobilised biotinylated hIL-23
T1 construct: Mutein of human lipocalin 2 (NGAL); Also used as negative control in the IL-17A cell assay; also called hNGAL mutein

[4] = target: B2; experiment: competition ELISA (MSD): biotinylated hIL-23 tracer pre-incubated with the titrated control, free hIL-23 captured on coated soluble hIL-23R
Description: as §1, §2, §3

[5] = target: B2; experiment: cell-based or functional assay
[6] = target: B2; experiment: SPR (Biacore T200), hIL-23 amine-coupled on chip, mutein as analyte
[7] = target: B2; experiment: competition ELISA (MSD), biotinylated hIL-23 pre-incubated with binder, free hIL-23 captured on coated hIL-23R; remark: listed apart in the source
[8] = target: T2, lipocalin mutein of SEQ ID NO: 1; experiment: solution competition ELISA: 0.25 nM SEQ ID NO: 1 pre-incubated with varied ligand, free mutein captured on immobilised biotinylated hIL-17A
T2 construct: Mutein of human tear lipocalin; also called Tlc mutein
Description: In the following detailed experimental protocol, incubation and washing steps were performed as described above in the competition ELISA protocol. A 384-well plate suitable for fluorescence measurements (Greiner FLUOTRAC™ 600, black flat bottom, high-binding) was coated with 20 μl of Neutravidin at a concentration of 5 μg/ml in PBS over night at 4° C. After washing, the Neutravidin-coated wells were blocked with 100 μl blocking buffer (PBS-T/BSA) for 1h at room temperature.

[9] = target: human IL-17A (human, UniProt Q16552 24-155, limits assumed); experiment: cell-based or functional assay

T2 sequence (chain, as listed by the source): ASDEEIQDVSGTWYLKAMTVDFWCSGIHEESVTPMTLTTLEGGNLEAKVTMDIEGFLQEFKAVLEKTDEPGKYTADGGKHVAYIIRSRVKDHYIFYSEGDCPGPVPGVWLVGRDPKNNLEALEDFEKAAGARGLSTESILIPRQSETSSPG

What does the source list for B1?
Kd [1]: 2.4 nM; IC50 [2]: 1.11 nM

With B2 as the binder, how does the IC50 [3] read?
Its IC50 is 0.9 nM.

Does B3 bind [4]?
Result: no binding

B4 was tested. Which IC50 [3] did it give?
Its IC50 is 0.5 nM.

How did the “hIL-23-induced proliferation of Ba/F3 cells with hIL-23R and hIL-12Rβ1, EC50” value [5] turn out when B5 was run?
The value was 5.4 nM.

And the Kd [6]?
Its Kd is 0.6 nM.

And the koff [6]?
Its koff is 4e-05 s⁻¹.

And the kon [6]?
The kon was 70000 M⁻¹ s⁻¹.

What about the IC50 [7] of the same binder?
The IC50 was 1.1 nM.

How did the “hIL-23-induced proliferation of Ba/F3 cells with hIL-23R and hIL-12Rβ1, EC50” value [5] turn out when B6 was run?
The value was 3.7 nM.

And the Kd [6]?
Its Kd is 0.1 nM.

What about the koff [6] of the same binder?
Its koff is 3e-05 s⁻¹.

And the kon [6]?
The kon was 300000 M⁻¹ s⁻¹.

And the IC50 [7]?
Its IC50 is 0.1 nM.

For B7, which IC50 [8] is on record?
Its IC50 is 0.1 nM.

What does the source list for B8?
hIL-23-induced proliferation of Ba/F3 cells with hIL-23R and hIL-12Rβ1, EC50, average [5]: 3 nM; hIL-23-induced proliferation of Ba/F3 cells, EC50, single experiment [5]: 3.1 nM and 2.9 nM

With B9 as the binder, how does the “IL-17A-induced G-CSF secretion in U87-MG cells, EC50, average” value [9] read?
Its value is 0.12 nM.

What about the “IL-17A-induced G-CSF secretion in U87-MG cells, EC50, single experiment” value [9] of the same binder?
Its value is 0.14 nM and 0.1 nM.

For B10, which IC50 [8] is on record?
Its IC50 is 0.2 nM.
